# Assay results reported in patent US20160053277A1, “Compositions Having Dicamba Decarboxylase Activity and Methods of Use” (PIONEER HI-BRED INTERNATIONAL, INC., priority 2013, published 2016).
# Changes are numbered by the printed parent chain.
# B1: 19 (protein, listed as Talaromyces marneffei)
# chain: MATPIITLEEHYISSAIRDASETDHYAVFPSQIISKLNTLSTERLQDLDNGHVSLQVISHGPGAQPPYLCQAANDELASAISANPTRFAGFALLPIAEPQLAVQELERCITQHKFVGALIDNHTNGQFYDDQKFWPVFEKAQELDAPIYVHPSYPDEESGVAAHYRGNYDDRIAAALGAYGWGWHSDTALSILRLFAAGLFDTYPNIKIIIGHMGEMLPFQLERVIGIASRFGRSRGLREVWTQNIWVTTSGMFALAPLACLLQTMPIERVLYSVDYPFSANEKGFAFLEEIKKSGLIKEGEDWERFLYKNAQELLKVNV
# B2: 22 (protein, listed as Staphylococcus epidermidis)
# chain: MAKSINFEEHYVVDDIQKETMKYMSSDPNGVPMQTMLKGLEQKSGFTNADDITKHDERIKFMDEHDVEMQVLSYGNGAPSNLEGERAIELCQQANDTLAKYVNEHPDRFVGFATLPINEPQAAVEEFKRCIKELGFKGALIMGHPKNGFLDQDQYDDLFATAEALNVPIYLHPSPVQSDVYQAYYKGNYSDVTAATFACFGYGWHVDVGIHAIHLVLSGVFDRHPNLNMIIGHWGEFVPFFLERMDDILFADHLEHPISYYFKNNFYITPSGMLTKPQFDLVKAEVGVDRILYSADYPYVEPDKLGTFLDELDLTEEEKEKISYKNGAKLLGLEK
# B3: 5 (protein, listed as Staphylococcus aureus)
# chain: MAQNNMEANQMKSITFEEHYVIEDIQKETMNAISADPKGVPMKVMLEGLEKKTGFTNADELSHHDERIQFMNNQDVQIQVLSYGNGSPSNLVGQKAIELCQKANDQLANYIAQYPNRFVGFATLPINEPEAAAREFERCINDLGFKGALIMGRAQDGFLDQDKYDIIFKTAENLGVPIYLHPAPVNSDIYQSYYKGNYPEVTAATFACFGYGWHIDVGIHAIHLVLSGIFDRYPKLNMIIGHWGEFIPFFLERMDEALFAEHLNHPVSYYFKNNFYITPSGMLTKPQFDLVKKEAGIDRILYAADYPYIEPEKLGVFLDELGLTDEEKEKISYTNGAKLLGLSSNN
# B4: 16 (protein, listed as Staphylococcus aureus)
# chain: B3 chain with A131T
# B5: 21 (protein, listed as Agrobacterium tumefaciens)
# chain: MAQGKVALEEHFAIPETLQDSAGFVPGDYWKELQHRLLDIQDTRLKLMDAHGIETMILSLNAPAVQAIPDRKKAIEIARRANDVLAEECARRPDRFLAFAALPLQDPDAATQELQRCVNDLGFVGALVNGFSQEGDGQTPLYYDLPQYRPFWGEVEKLDVPFYLHPRNPLPQDSRIYDGHPWLLGPTWAFAQETAVHALRLMASGLFDAHPRLNIILGHMGEGLPYMMWRIDHRNAWVKLPPRYPAKRRFVDYFNENFHITTSGNFRTQTLIDAILEIGADRILFSTDWPFENIDHASDWFNATTIAEADRVKIGRTNARRLFKLDGR
# B6: 26 (protein, listed as Variovorax paradoxus)
# chain: MATHMAPMKNKIALEEHFAIDLTIADSQVYARPEVWQGLKSNLLDFEQQRLEKMDEWGTEFSILSLNSPAVQGIPDAKRAIEVAQRANDVLAEQVKRHPTRFGGFAALPMQDPEASARELERCVNQLGFHGFLVNGFSQVGDENIVVYYDDARFNDFWTAAAALKKPFYMHPRDPLLAREPIYDGAHWLTGPTWAFAMETAIHALRLMSSGMFDRHPALQMILGHFGEGIPFNIWRVDHILRKGRRGMPCDKEIGEYLRSNVHITTSGNFRTPTLLSTMLEVGSDRIMYSVDYPFEKHEDAARWFDTCEISENDRQKIGRDNARKLFGLK
# B7: 3 (protein, listed as Lactobacillus plantarum)
# chain: MAKLITVEEHFESAAVTAAMRQAVGNAVLPAVSPALRQYMRDNLPSPAIMQDTQHERLAFMAQYGIDMQVLSYGNSSPQNLSPEQAVPLSQLANDELAKAVVAHPDRYAGLAVLPVGDPQAAVAELNRAVTTLGLRGVLLKGNYQNKFFDEPFFLPIFEAAAALDVPVYFHPSFIPQAVTSHYFESNQWSDVVTGILSSAGYGWHMDVGIQVIRMIASGIFDKLPGLKLISGHWGELVPLFLERLDDELTTYTDLQYPFSTYYRHNVYVTPSGILSAPQLQFMLAEMGADHLMYSIDYPYKQPETSGSFLDIADLTDEQRAQIAFGTATTLFKL
# B8: 40 (protein, listed as Rhodococcus jostii)
# chain: MAQGKIALEEHFAIPETLNDSAGFVPGTYWDELQARLLDIQDVRLKLMDEHNIETMILSLNAPAVQAIPERERAIDIARRANDVLAEECAKRPDRFRGFAALPLQDPDAAAEELRRCVTELGFVGALVNGFSQSATVDGGSTPLYYDLPRYRPFWAEVERLDVPFYLHPRNPLNQDARIYEGHPWLLGPTWAFAQETAVHALRLMASGLFDEHPGLRIVLGHMGEGIPAMLWRIDHRNAWVDVPPAYPAKRRMVDYFTENFFVTTSGNFRTQTLIDLLLELGSERVMFSTDWPFENINHAAEWFDAASISEADRLKIGRTNAATLFKLDR
# B9: 37 (protein, listed as Burkholderia gladioli)
# chain: MATFSNVKKIALEEHFAIAETIEDSAGFVPPDDWVELRGRLLDIQERRLAEMDRAGIELMVLSLNAPAVQAIRDPRQAVELARRANDYLAEQVARRPDRFRAFAALPMQAPEQAIREAERCVRELGFVGALVNGFSEAEDGAELYYDLPRYRPFWAALEALEVPFYLHPRNPLAGRAPIYDGHSWLMGPTWAFGQETAVHALRLMGSGLFDAHPRLQIILGHMGEGLPYSMWRVDNRNAWVSAKPNYPAEKPIAEYFRNNFWLTTSGNFRTQTLIDAMLEIGSDRILFSADWPFENMDHAADWFDHASISENDRIKIGRGNAERLLKLGR
# B10: 42 (protein)
# chain: MAQGKIALEEHFAIPDTLQDSAGFVPGDYWKELSARLLDIHEQRLMQMDAYGIEKMILSLNAPAVQAIPDKAKALEISRRANDFLAEQCARNPDRFLGFAALPLQDPDAATAELQRCVKTLGFVGALVNGFSQEGDGVTPLYYDLPQYRGFWAEVEKLAVPFYLHPRNPLPQDSRIYAGHPWLMGPTWAFAQETAVHALRLVGSGLFDDHPALRIILGHMGEGLPYMMWRIDNRNAWVKVAPNYPAKRRIADYFNENFYITTSGNFRTQSLVDAMLEIGADRILFSTDWPFENIDHASDWFDTATISEADRLKIGRTNAATLFNLES
# modifications: Agrobacterium radiobacter
# B11: 38 (protein, listed as Variovorax paradoxus)
# chain: MAQGKIGLEEHFAIPQTLQDSAGFVPGVYWKELSSRLLDIHDGRLRQMDEHGMEMMILSLNAPAVQAVADPVKAYELAVRANDFLAEQVAKRPDRFQAFAALPMQDPEKATQELERCMSVLGFRGALVNGFSQVGTPDNVAYYDAPQYAPFWAAAERLDAPFYLHPRNPIASWAQIYEGHPWLLGPTWAFAQETAVHALRLMASGLFDRHPGLKIILGHLGEGLPYNMWRVDHRNAWVKAPKGYPAKRKLCEYFQENFYLTTSGNFRTQTLIDAMLEVGSDRILFSTDWPFENIDHASNWFNDTSISEADRKKIGRTNAMSLFKLA
# B12: 29 (protein, listed as Pseudovibrio sp.)
# chain: MAGRRDFLRKSVAAGVGLTAAAQLSAGGAQATVPDTSNIPLITLEEHFTTPELQSKNTSGDKRLFSGGGSRPELLDVGAGRIADMDEAGIDIQVLSTVTPGASKITGAEGVEFTRKFNTWIAEEVIAAYPNRFRAFATLPLSSPEAAADELERSVREYGFVGTMTYGPIDGKFLDHADYAPLLARAEALGVPIYIHPNWPSPTAMQAYYDGLGDDLTSRILSGPGYGWHQEIAVQCLRLIVGGVFDRFPNLQIVVGHMGEGLPFYYWRVGEDLDRIAQKRLQKPVQQYFHDNLWITTSAFFRDELLNLALATMGEDRVMFSVDYPMASAKVGADWLRAADIPLATKEKIGSKNAMKLLGIDKI
# B13: 45 (protein)
# chain: MANDDLAEVIAAHPDRFAGFAALPMRDPQAAAVELQRAVGTHGFCGAMINGLIEGRFLDDPAFAPLLSTAADLGVPLYLHPSFPPPQVAEIYFGGLAPVLGDLLATAGWGWHAETALHVLRLVATGVFDRLPELWVIVGHMGEMIPFALARIDTVLSPVAQLRQPVAQYFQTNVWFTTSGYTTFPPLQCALSTVGIDRLIFSVDYPYTDNTSARALLDTAPISPVDREKLAHGTVEALLRV
# modifications: Mycobacterium sp
# B14: 39 (protein, listed as Agrobacterium fabrum)
# chain: MAQGKVALEEHFAIPETLQDSAGFVPGDCWTELQHRLLDIQDTRLKLMDAHGIETMILSLNAPAVQAIPDKTKAIEIARRANDALAEECAKRPDRFLAFAALPLQDPDAATQELRRCVNDLGFVGALVNGFSQEGDGQTPLYYDLPQYRPFWGEVEKLDVPFYLHPRNPLPQDSRIYDGHPWLLGPTWAFAQETAVHALRLMASGLFDEHPRLDIILGHMGEGLPYMMWRIDHRNAWVKLPPRYPAKRRFVDYFNENFHITTSGNFRTQTLIDAILEIGADRILFSTDWPFENIDHASDWFHATSIAEADRVKIGRTNARRLFKLDGR
# Test: 14C assay with IPTG-induced recombinant E. coli cells: 14CO2 captured from [14C]-carboxyl-labeled dicamba
# Conditions: among the 108 sequences tested, recombinant E. coli cells
row,Molecule,decarboxylation activity of dicamba
1,B1,showed decarboxylation activity of dicamba
2,B2,showed decarboxylation activity of dicamba
3,B3,showed decarboxylation activity of dicamba
4,B4,showed decarboxylation activity of dicamba
5,B5,showed decarboxylation activity of dicamba
6,B6,showed decarboxylation activity of dicamba

# Same assay, conditions: dicamba decarboxylation activity of the protein of the given SEQ ID NO; High / Low / No
row,Molecule,Enzymatic Detection level
1,B7,Low
2,B1,High
3,B8,Low
4,B9,Low
5,B2,High
6,B3,High
7,B4,High
8,B10,Low
9,B5,High
10,B11,Low
11,B12,No
12,B13,No
13,B6,High
14,B14,No

# Same assay, conditions: induced recombinant E. coli cells, [14C]-carboxyl-labeled dicamba, 14CO2 capture
row,Molecule,Dicamba Decarboxylase Activity
1,B7,Low
2,B1,High
3,B8,Low
4,B9,Low
5,B2,High
6,B3,High
7,B4,High
8,B10,Low
9,B5,High
10,B11,Low
11,B12,No
12,B13,No
13,B6,High
14,B14,No

# Test: Saturation mutagenesis of SEQ ID NO:109: dicamba decarboxylation activity of point mutants (carbon dioxide released)
# Conditions: decarboxylation activity (carbon dioxide released) of point mutant compared with unmutated backbone protein; backbone SEQ ID NO: 109
row,Molecule,Fold Activity
1,B7,0.9
2,B1,1.6
3,B8,1.4
4,B9,1.6
5,B2,1.6
6,B3,0.8
7,B4,1.1
8,B10,1.7
9,B5,1.9
10,B11,1.8
11,B12,1.5
12,B13,1.7
13,B6,1.2
14,B14,1.6
